In article PMC3605045, “GH1-family 6-P-β-glucosidases from human microbiome lactic acid bacteria” (Acta Crystallographica Section D: Biological Crystallography, 2013) one finds stoichiometry N data, which are given here for one substance.

This assay concerns the target 6-P-β-glucosidase from Lactobacillus plantarum WCFS1 (LpPgb1) (Lactobacillus plantarum WCFS1). Put plainly: SEC; Superdex 200 16/60, 20 mM HEPES-NaOH pH 8.0, 250 mM NaCl, 2 mM DTT, proteins ~3 mg/ml, 1 ml/min, calibrated with ferritin, aldolase, conalbumin and ovalbumin; oligomeric state from the elution volume.

In general, stoichiometry N refers to the number of molecules, sites or subunits per partner or assembly. “6-P-β-glucosidase from Lactobacillus plantarum WCFS1 (LpPgb1) (enzyme)” showed a stoichiometry N of 2.
